Assay results published in the RNAGym collection of RNA variant scans (doi:10.7554/elife.80360).

B1: CPEB3 Ribozyme (parent)
chain: GGGGGCCACAGCAGAAGCGUUCACGUCGCGGCCCCUGUCAGAUUCUGGUGAAUCUGCGAAUUCUGCUGU

Variants of: B1
Assay: self-cleavage, relative activity (ratio to wild type); higher = more cleavage; co-transcriptional

Row | Variant | self-cleavage
1 | A60G G65C | 0.362
2 | A60G G68A | 0.987
3 | A60G G68C | 0.889
4 | A60G U61C | 0.365
5 | A60G U62A | 0.576
6 | A60G U64A | 0.493
7 | A60G U64C | 0.491
8 | A60G U64G | 0.493
9 | A60G U67A | 0.944
10 | A60G U69A | 0.994
11 | A60G U69C | 1.03
12 | A60U | 0.526
13 | A60U C66A | 0.403
14 | A60U C66G | 0.405
15 | A60U G65C | 0.362
16 | A60U G68A | 0.637
17 | A60U G68C | 0.556
18 | A60U G68U | 0.66
19 | A60U U61A | 0.623
20 | A60U U62G | 0.679
21 | A60U U64A | 0.394
22 | A60U U64G | 0.333
23 | A60U U67G | 0.615
24 | A60U U69A | 0.536
25 | U61A C63G | 0.516

Row | Variant | self-cleavage
26 | U61A C66U | 0.83
27 | U61A G68A | 1.05
28 | U61A U62A | 0.839
29 | U61A U64C | 0.585
30 | U61A U64G | 0.529
31 | U61A U69C | 1.06
32 | U61A U69G | 1.02
33 | U61C C63G | 0.427
34 | U61C G65A | 0.36
35 | U61C G68U | 0.893
36 | U61C U62A | 0.554
37 | U61C U62G | 0.487
38 | U61C U67G | 0.798
39 | U61C U69A | 0.946
40 | U61G C66U | 0.659
41 | U61G G65C | 0.449
42 | U61G U62A | 0.871
43 | U61G U62C | 0.873
44 | U61G U62G | 0.71
45 | U61G U64C | 0.64
46 | U61G U67G | 0.808
47 | U61G U69A | 0.969
48 | U61G U69C | 0.697
49 | U62A C63U | 0.705
50 | U62A C66U | 0.737

Row | Variant | self-cleavage
51 | U62A G65C | 0.413
52 | U62A G65U | 0.717
53 | U62A G68U | 0.964
54 | U62A U64G | 0.622
55 | U62A U67G | 0.918
56 | U62A U69C | 1.09
57 | U62C C63A | 0.753
58 | U62C C66G | 0.567
59 | U62C C66U | 0.654
60 | U62C G65A | 0.479
61 | U62C G65U | 0.531
62 | U62G C66G | 0.442
63 | U62G G65U | 0.455
64 | U62G G68C | 0.866
65 | U62G U64A | 0.49
66 | U62G U64C | 0.502
67 | U62G U67C | 0.684
68 | U62G U67G | 0.841
69 | C63A C66A | 0.304
70 | C63A C66G | 0.402
71 | C63A C66U | 0.619
72 | C63A G65C | 0.491
73 | C63A U64G | 0.783
74 | C63G G65A | 0.461
75 | C63G G65U | 0.525

Row | Variant | self-cleavage
76 | C63G G68C | 0.706
77 | C63G U64A | 0.689
78 | C63G U64C | 0.407
79 | C63G U67A | 0.614
80 | C63G U69G | 0.921
81 | C63U C66G | 0.456
82 | C63U G65A | 0.672
83 | C63U G65C | 0.419
84 | C63U G65U | 0.772
85 | C63U G68C | 0.972
86 | C63U G68U | 0.968
87 | C63U U64A | 0.73
88 | C63U U64C | 0.836
89 | C63U U67A | 0.94
90 | C63U U69C | 1.06
91 | U64A | 0.963
92 | U64A G65C | 0.39
93 | U64A G65U | 0.827
94 | U64A G68A | 0.99
95 | U64A U67C | 0.83
96 | U64A U69A | 0.964
97 | U64A U69C | 1.05
98 | U64A U69G | 0.988
99 | U64C | 0.941
100 | U64C C66A | 0.435

Row | Variant | self-cleavage
101 | U64C G65U | 0.699
102 | U64C G68U | 0.803
103 | U64C U67G | 0.824
104 | U64C U69A | 0.972
105 | U64C U69G | 1
106 | U64G | 0.952
107 | U64G C66A | 0.422
108 | U64G G65U | 0.672
109 | U64G U67A | 0.88
110 | U64G U67C | 0.788
111 | U64G U67G | 0.769
112 | G65A C66A | 0.75
113 | G65A U69A | 0.932
114 | G65A U69C | 1.05
115 | G65C C66A | 0.788
116 | G65C G68C | 0.633
117 | G65C G68U | 0.406
118 | G65C U67A | 0.589
119 | G65C U69C | 1.05
120 | G65C U69G | 0.862
121 | G65U G68A | 0.919
122 | G65U G68U | 0.681
123 | G65U U69G | 0.94
124 | C66A G68A | 0.87
125 | C66A U67C | 0.925

Row | Variant | self-cleavage
126 | C66A U69C | 1.04
127 | C66A U69G | 0.882
128 | C66G G68C | 0.735
129 | C66G G68U | 0.932
130 | C66G U67C | 0.914
131 | C66U G68A | 0.976
132 | C66U G68U | 0.969
133 | C66U U67A | 1.02
134 | C66U U69G | 1.06
135 | U67A | 0.989
136 | U67C | 0.997
137 | U67C G68C | 1.01
138 | U67C U69C | 1.1
139 | U67G | 1.02
140 | U67G G68A | 1.08
141 | U67G U69G | 1.11
142 | G68A | 1.01
143 | G68A U69A | 1.08
144 | G68A U69C | 1.05
145 | G68C | 1
146 | G68C U69C | 1.1
147 | G68U | 1.01
